Results reported in the supplement of paper PMC9233669.
Variants at the floor of the assay were thinned out.

Key:
[1] = test system: biotinyl-Phe-oxazolone; assay: self-aminoacylation, catalytic enhancement (BFO) (fold over background); higher = more active; k-Seq, kA / k0A0; sequences stand for … in GGGAAUGGAUCCACAUCUACGAAUUC…UUCACUGCAGACUUGACGAAGCUG
Method in brief: (§1)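 Mutagenized RNA pools (0.43 μM; 21-nt variable region) were treated with 2–1250 μM of each biotinyl-aminoacyl-oxazolone. Conditions were 50 μL HEPES/NaCl/KCl/MgCl2/CaCl2 buffer, 5% acetonitrile, pH 6.9–7.0, room temperature, 90 minutes. Catalytic enhancement, the median kA relative to the uncatalyzed rate, was derived from streptavidin capture, qPCR and Illumina sequencing.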

[2] = test system: biotinyl-Ile-oxazolone; assay: self-aminoacylation, catalytic enhancement (BIO) (fold over background); higher = more active; k-Seq, kA / k0A0; sequences stand for … in GGGAAUGGAUCCACAUCUACGAAUUC…UUCACUGCAGACUUGACGAAGCUG
Method in brief: as §1

[3] = test system: biotinyl-Met-oxazolone; assay: self-aminoacylation, catalytic enhancement (BMO) (fold over background); higher = more active; k-Seq, kA / k0A0; sequences stand for … in GGGAAUGGAUCCACAUCUACGAAUUC…UUCACUGCAGACUUGACGAAGCUG
Method in brief: as §1

[4] = test system: biotinyl-Trp-oxazolone; assay: self-aminoacylation, catalytic enhancement (BWO) (fold over background); higher = more active; k-Seq, kA / k0A0; sequences stand for … in GGGAAUGGAUCCACAUCUACGAAUUC…UUCACUGCAGACUUGACGAAGCUG
Method in brief: as §1

[5] = test system: biotinyl-Leu-oxazolone; assay: self-aminoacylation, catalytic enhancement (BLO) (fold over background); higher = more active; k-Seq, kA / k0A0; sequences stand for … in GGGAAUGGAUCCACAUCUACGAAUUC…UUCACUGCAGACUUGACGAAGCUG
Method in brief: as §1

[6] = test system: biotinyl-Val-oxazolone; assay: self-aminoacylation, catalytic enhancement (BVO) (fold over background); higher = more active; k-Seq, kA / k0A0; sequences stand for … in GGGAAUGGAUCCACAUCUACGAAUUC…UUCACUGCAGACUUGACGAAGCUG
Method in brief: as §1

| Sequence | self-aminoacylation [1] | self-aminoacylation [2] | self-aminoacylation [3] | self-aminoacylation [4] | self-aminoacylation [5] | self-aminoacylation [6] |
| --- | --- | --- | --- | --- | --- | --- |
| UCACACUUCACGCAAUCGGUC [Fam1B.1 aminoacylation ribozyme variant] | 0.767 | 1.03 | 0.81 | 0.908 | 0.873 | 1.21 |
| AUUACCCUGCUCAUCGAGUCA [Fam2.1 aminoacylation ribozyme variant] | 0.452 | 0.779 | 0.64 | 0.425 | 0.646 | 0.819 |
| AAGUUCGCUUAUAGUCGCAAG [Fam3.1 aminoacylation ribozyme variant] | 1.99 | 1.86 | 2.03 | 2.23 | 1.84 | 1.5 |
| AUUACCCUGGUAAUUGAGUGA [Fam2.1 aminoacylation ribozyme variant] | 117 | 6.96 | 16.2 | 19.2 | 17.1 | 6.33 |
| UAGUUUGCUAAUAUUCGCAAG [Fam3.1 aminoacylation ribozyme variant] | 1.71 | 1.3 | 1.22 | 1.21 | 1.04 | 1.26 |
| AUUACCGUGGUCAUCUAGUGA [Fam2.1 aminoacylation ribozyme variant] | 31.2 | 3.29 | 6.98 | 7.82 | 6.26 | 3.82 |
| CCGCACUUCAAGCAAUCGGAC [Fam1B.1 aminoacylation ribozyme variant] | 1.31 | 1.07 | 1 | 1.86 | 0.812 | 1.12 |
| AUUACCGUGGUCAUAGAGUGA [Fam2.1 aminoacylation ribozyme variant] | 35.7 | 3.67 | 7.8 | 7.99 | 6.95 | 3.97 |
| AAGCUUGCUAAUACUCGCAAG [Fam3.1 aminoacylation ribozyme variant] | 1.31 | 1.5 | 0.693 | 1.98 | 0.856 | 1.26 |
| ACUACCCUGGUCAUCGAGUGA [Fam2.1 aminoacylation ribozyme variant] | 266 | 16.2 | 44.3 | 45.2 | 43.4 | 17.4 |
| AUUAGCCUGGUCAUGGAGUGA [Fam2.1 aminoacylation ribozyme variant] | 17.2 | 2.77 | 4.09 | 4.92 | 4.02 | 2.72 |
| AUUCAGCUAGGUAAUCGGGUG [Fam2.2 aminoacylation ribozyme variant] | 23.8 | 2.69 | 4.03 | 4.43 | 4.57 | 2.65 |
| AUUCACCUAGGUCAUCCCGUG [Fam2.2 aminoacylation ribozyme variant] | 26.7 | 3.32 | 4.13 | 5.25 | 4.87 | 3.25 |
| CUACUUCAAACAAUCAGUAUG [Fam1A.1 aminoacylation ribozyme variant] | 6.02 | 0.847 | 0.891 | 2.46 | 0.777 | 0.819 |
| AAGUUUGCUAACAAUCGCAAG [Fam3.1 aminoacylation ribozyme variant] | 1.03 | 0.619 | 0.63 | 0.717 | 0.591 | 0.599 |
| AUUACGCUGGUCAACGAGUGA [Fam2.1 aminoacylation ribozyme variant] | 5.51 | 2.42 | 3.33 | 3.71 | 3 | 2.71 |
| AAGUUUGCUCUUAGUCGCAAG [Fam3.1 aminoacylation ribozyme variant] | 1.53 | 0.73 | 0.758 | 0.65 | 0.786 | 0.813 |
| CAACUUCAAACAUUCGGUCUG [Fam1A.1 aminoacylation ribozyme variant] | 11.5 | 1.53 | 1.34 | 1.74 | 1.5 | 1.57 |
| CUACUUCACUCAAUCGGUCUG [Fam1A.1 aminoacylation ribozyme variant] | 0.865 | 0.732 | 0.72 | 0.651 | 0.719 | 0.934 |
| CCACACUUCAAGCAAGCUGUC [Fam1B.1 aminoacylation ribozyme variant] | 0.716 | 0.504 | 0.451 | 0.346 | 0.404 | 0.565 |
| GUUCACCUACGUCAUCGGGUG [Fam2.2 aminoacylation ribozyme variant] | 31 | 3.26 | 4.35 | 4.3 | 5.15 | 3.69 |
| AUUCACAUAGGUCAUAGGGUG [Fam2.2 aminoacylation ribozyme variant] | 2.85 | 1.55 | 2.17 | 1.66 | 2.3 | 1.54 |
| AAGCUUGCUAAUGGUCGCAAG [Fam3.1 aminoacylation ribozyme variant] | 2.3 | 1.77 | 2.83 | 3.95 | 1.83 | 1.76 |
